Reference: article PMC6821130
Values joined by “and” are separate entries in the source; they are usually repeats but may differ in a detail not shown here. Equal values may be shown once.

Tests used:
[1] = molecular target: 6XHis-PilT (Vibrio cholerae); test: negative-stain electron microscopy
[2] = molecular target: 6XHis-PilU (Vibrio cholerae); test: negative-stain electron microscopy
[3] = molecular target: 6xHis-PilT^K136A (Vibrio cholerae); test: negative-stain electron microscopy
[4] = molecular target: 6xHis-PilU^K134A (Vibrio cholerae); test: negative-stain electron microscopy
[5] = molecular target: PilT (full length, fused to the T18 or T25 fragment of adenylate cyclase); test: BACTH Miller assay; details: read off a plot
[6] = molecular target: PilU (full length, fused to the T18 or T25 fragment of adenylate cyclase); test: BACTH Miller assay; details: read off a plot
[7] = molecular target: PilT^K136A (full length, fused to the T18 or T25 fragment of adenylate cyclase); test: BACTH Miller assay; details: read off a plot
[8] = molecular target: PilC (full length, fused to the T18 or T25 fragment of adenylate cyclase) (UniProt Q9X4G9); test: BACTH Miller assay; details: read off a plot
Chain of UniProt Q9X4G9 (Q9X4G9 whole entry, the tested form may be a part): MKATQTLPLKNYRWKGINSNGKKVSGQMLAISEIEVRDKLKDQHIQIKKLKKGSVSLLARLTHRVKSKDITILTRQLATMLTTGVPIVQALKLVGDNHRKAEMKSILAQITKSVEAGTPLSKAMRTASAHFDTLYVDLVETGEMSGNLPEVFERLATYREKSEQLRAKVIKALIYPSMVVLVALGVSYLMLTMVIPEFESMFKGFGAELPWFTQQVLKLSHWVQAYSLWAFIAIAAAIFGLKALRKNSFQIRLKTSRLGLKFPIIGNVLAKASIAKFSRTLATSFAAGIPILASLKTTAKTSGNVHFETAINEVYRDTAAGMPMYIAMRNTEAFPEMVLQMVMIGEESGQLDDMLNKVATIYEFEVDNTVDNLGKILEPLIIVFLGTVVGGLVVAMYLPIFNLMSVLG

[9] = molecular target: PilU^K134A (full length, fused to the T18 or T25 fragment of adenylate cyclase); test: BACTH Miller assay; details: parent: est. 180; read off a plot

6XHis-PilT (enzyme) showed a stoichiometry N [1] of 6.
6XHis-PilU (enzyme) gave a stoichiometry N [2] of 6.
Substance 6xHis-PilT^K136A (enzyme) has a stoichiometry N [3] of 6.
With 6xHis-PilU^K134A (enzyme) the stoichiometry N [4] was 6.
With “PilT (full length, fused to the T18 or T25 fragment of adenylate cyclase) K136A” the response ([5]; parent: est. 170) was 170 Miller Units and 160 Miller Units, the response ([6]; parent: est. 65) was 8.5 Miller Units and the response ([6]; parent: est. 110) was 78 Miller Units. The response ([7]; parent: est. 170) was 85 Miller Units, the response ([8]; parent: est. 90) was 80 Miller Units and the response ([8]; parent: est. 120) was 110 Miller Units.
For “PilU (full length, fused to the T18 or T25 fragment of adenylate cyclase) K134A”, the response ([5]; parent: est. 65) was 85 Miller Units, the response ([5]; parent: est. 110) was 78 Miller Units and the response ([6]; parent: est. 180) was 180 Miller Units and 220 Miller Units. The response [9] was 140 Miller Units, the response ([8]; parent: est. 55) was 75 Miller Units and the response ([8]; parent: est. 100) was 110 Miller Units.
In the case of m2; m1 PilU:K134A; PilT:K136A, the response ([7]; parent: est. 65) is reported as 11 Miller Units and the response ([7]; parent: est. 110) is reported as 48 Miller Units.
